Here are results for one molecule from article PMC5912465.

This experiment deals with T1, human CCL8 (residues Gln-24 to Pro-99), expressed in E. coli (human), P80075.
T1 chain: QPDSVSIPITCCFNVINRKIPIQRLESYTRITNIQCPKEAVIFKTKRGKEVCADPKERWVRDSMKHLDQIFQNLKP
The experiment is described as follows: native MS; CCL8 alone in 200 mM ammonium acetate pH 6.5; modified Q Exactive, capillary voltage 1.2 kV, source temperature 100 °C. As to conditions: remark: other sources report otherwise.

B1: human CCL8 (residues Gln-24 to Pro-99), expressed in E. coli, P80075 24-99 (ligand)
chain: QPDSVSIPITCCFNVINRKIPIQRLESYTRITNIQCPKEAVIFKTKRGKEVCADPKERWVRDSMKHLDQIFQNLKP
In general, stoichiometry N refers to the number of molecules, sites or subunits per partner or assembly. Consider B1, for which the stoichiometry N stood at 2.
